Test [1] deals with Bax_(C87(C62S, C126S)) labeled with maleimide gem-diethyl nitroxide (MAG) (human) (UniProt Q07812). Description: DEER (double electron-electron resonance, EPR); inactive Bax in buffer (aqueous solution) with 50% v/v glycerol-d8, flash frozen; Q-band 4-pulse DEER, NO-NO at 50 K, Gd-Gd at 10 K; one labeled variant per sample.
The target in test [2] is Bax_(C87(C62S, C126S)) labeled with maleimide Gd-DOTA (human) (UniProt Q07812). The test is described as above.
Test [3] deals with T1, Bax wild type labeled with iodacetamide gem-diethyl nitroxide (IAG) (human, UniProt Q07812 1-192, IAG (iodacetamide gem-diethyl nitroxide) spin label on the native cysteines 62 and 126).
T1 construct: Bax, human, full length; two native cysteines at positions 62 and 126; also called Bax_(WTIAG); source: E. coli (BL21/RIPL/pTYB1-Bax), purified; labeled with IAG
Description: DEER (double electron-electron resonance, EPR); two Bax variants mixed before oligomerization (3-fold excess of unlabeled BaxWT or of Bax_(C87Gd) over nitroxide-labeled BaxWT), activated with cBid and MOM-like liposomes, pellet fraction; NO-NO (50 K), NO-Gd (10 K) and Gd-Gd (10 K) DEER channels on the same sample. The following applies: both partners purified.

For test [4], the target named is T2, Bax wild type labeled with MTSL at cysteines 62 and 126 (human, UniProt Q07812 1-192, MTSL nitroxide spin label (R1) on the native cysteines 62 and 126).
T2 construct: Bax, human, full length; two native cysteines at positions 62 and 126; also called Bax_(WTR1); source: E. coli (BL21/RIPL/pTYB1-Bax), purified; labeled with MTSL
Described as above. The conditions noted are these: both partners purified.

This is an account of results in paper PMC6737250, “A new perspective on membrane-embedded Bax oligomers using DEER and bioresistant orthogonal spin labels” (Scientific Reports, 2019).

The molecule “Bax_(C87(C62S, C126S)) labeled with maleimide gem-diethyl nitroxide (MAG) (from UniProt Q07812 1-192) (natural protein)” returned a fraction of dimeric protein in solution in test [1] of less than 10%.

B1: Bax_(C87(C62S, C126S)) labeled with maleimide Gd-DOTA (natural protein, human, UniProt Q07812 1-192, looked up)
chain: MDGSGEQPRGGGPTSSEQIMKTGALLLQGFIQDRAGRMGGEAPELALDPVPQDASTKKLSESLKRIGDELDSNMELQRMIAAVDTDCPREVFFRVAADMFSDGNFNWGRVVALFYFASKLVLKALSTKVPELIRTIMGWTLDFLRERLLGWIQDQGGWDGLLSYFGTPTWQTVTIFVAGVLTASLTIWKKMG
modifications: maleimide Gd-DOTA spin label on cysteine 87
notes: Bax, human, full length, single surface-exposed cysteine at position 87; also called Bax_(C87Gd); source: E. coli, purified in the same way as the wild type protein; labeled with maleimide Gd-DOTA
In test [2], B1 showed a fraction of dimeric protein in solution of less than 10%. The binding result in test [3] and in test [4] was “binds” in each case.
